Measured values taken from the RNAGym collection of RNA variant scans (doi:10.1073/pnas.2313332121).
This sample holds only a part of the variants without activity.

B1: TPR 5TU (parent)
chain: GGAUCUUCUCGAUCUAACAAAAAAGACAAAUCUGCCACAAAGCUUGAGAGCAUCUUCGGAUGCAGAGGCGGCAGCCUUCGGUGGCGCGAUAGCGCCAACGUUCUCAACUAUGACACGCAAAACGCGUGCUCCGUUGAAUGGAGUUUAUCAUG

Variants of: B1
Test: polymerase ribozyme fitness, log enrichment relative to wild type (log ratio); higher = more active; in vitro selection for triplet polymerase activity
Procedure, shortened: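 PCR was used to build mutant libraries for each subunit of a heterodimeric triplet polymerase ribozyme, which were then transcribed. A single in vitro selection round, in triplicate, used a frozen incubation at −7 °C and recovered extended constructs by gel excision, streptavidin beads and RT-PCR. Fitness is the logarithm of genotype enrichment relative to wild-type enrichment, averaged over replicates with inverse-variance weights. The logarithm is base 2, and after Illumina sequencing only genotypes with ≥10 input reads and ≥1 read per output were kept.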

Variant	polymerase ribozyme fitness (log ratio)
GGAUCUUCUCGUUCUAACAAAAAAGACAAAUCUGCUACAAAGCUUGAGAGCAUCUUCGGAUGCAGAGGCGGCAGCCUUCGGUGUCGCGAUAGCGCCAACGUUCUCAACUAUGACACGCAAAACGCGUGCUCCGUUGAAUGGAGUUUAUCAUG [A12U C36U G84U]	-4.11
GGAUCUUCUCGUUCUAACAAAAAAGACAAAUCUGCCACAAAGCUUGAGAGCAUCUUCGGAUGCAGAGGCGGCAGCCUUCGGUGGCGCGAUAGCGCCAACGUUCUCAACUAUGACACGCAAAACGCGUGCUCCGUUGAAUGGAGUUUUUCAUG [A12U A147U]	0.945
GGAUCUUCUCGUUCUAACAAAAAAGACAAAUCUGCCACAAAGCUUGAGAGCAUCUUCGGAUGCAGAGGCGGCAGCCUUCGGUGGCGCGAUAGCGCCAACGUUCUCAACUAUGACACGCAAAUCGCGUGCUCCGUUGAAUGGAGUUUCUCAUG [A12U A122U A147C]	-0.484
GGAUCUUCUCGUUCUAACAAAAAAGACAAAUCUGCCACAAAGCUUGAGAGCAUAUUCGGAUGCAGAGGCGGCAGCCUUCGGUGGCGCGAUAGCGCCAACGUUCUCAACUAUGACACGCAAAACGCGUGCUCCGUUGAAUGGAGUUUAUCAUG [A12U C54A]	-1.78
GGAUCUUCUCGUUCUAACAAAAAAGACAAAUCUGCCACAAAGCUUGAGAGCAUCUUGGGAUGCAGAGGCGGCAGCCUCCGGUGGCGCGAUAGUGCCAACGUUCUCAACUAUGACACGCAAAACGCGAGCUCCGUUGAAUGGAGUUUAUCAUG [A12U C57G U78C C93U U127A]	≤ -4.2
GGAUCUUCUCGUUCUAACAAAAUAGACAAAUCUGCCACAAAGCUCGAGAGCAUCUUCGGAUGCAGAGGCGGCAGCCUUCGGUGGCGCGAUAGCGCCGUCGUUCUCAACUAUGACACGCAAAACGCGUGCUGUGUUGAAUGGAGUUUAUCAUG [A12U A23U U45C A97G A98U C131G C132U]	-4.12
GGAUCUUCUCGUUCUAACAAAAAAGUCAAAUCUGCCACAAAGCUUCAGAGCAUCUUUGGAUGCAGAGGCGGCAGCCUUCGGUGGCGCGAUAGUGCCAACGUUCUCAACUAUGACACGCAAAACGGGGGCUCCGUUGAGUGGAGUUUAUCAUG [A12U A26U G46C C57U C93U C125G U127G A138G]	≤ -4.2
GGAUCUUCUCGUUCUAACAAAAAAGACAAAUCUGCCACACAGCUUGAGAGCAUCUUCGGAUGCAGAGGCGGCAGCCUUCGGUGGCGCGAUAACGCCAACGUUCUCAACUAUGACACGGAAAACGCGUGCUCCGUUGAAUGGAGUUUAUCAUG [A12U A40C G92A C118G]	-3.87
GGAUCUUCUCGUUCUAAUAAAAAAGACAAAUCUGCCACAAAGCUUGGGAGCAUCUUCGGAUGCAGAGGCGGCAGCCUUCGGUGGAGCGAUAGAGCCACCGUUCUCAACUAUGACACGCAAUACGCGUGCUCCGUUGAAUGGAGUUUAUCAUG [A12U C18U A47G C85A C93A A98C A121U]	≤ -4.2
GGAUCUUCUCGUUCUAACAAAAAAGACAAAUCUGCCACUAAGCUUGAGAGCAUCAUCGGAUGCAGAGACGGCAGCCUUCGGUGGCGCGAUAGCGCUAACGUUCUCAACUAUGACACGCAAAACGCGUGCUCCGUUGAAUGGAGUGUAUCAUG [A12U A39U U55A G68A C96U U145G]	≤ -4.2
GGAUCUUCUCGUUCUAACAAAAAAGACAAAUCUGCCACAAAGCUUGCGAGCCUCUGCGGAUGCCGAGGCGGCAGCCUUCGGUGGCACGGUAGCGCCAAUGUUCUCAACUAUGACACGCAAAACGCGUGCUCCGUUGAAUGGAGUUUAUCAUG [A12U A47C A52C U56G A64C G86A A89G C99U]	≤ -4.2
GGAUCUUCUCGUUCUAACAAAAAAGACAAAUCUGGGACAAAGCUUGAGAGCAUCGUCGGAUGCAGAGGCGGCAGCCUUCGGUGGCUCGAUAGCGCCAACGUUCUCAACUAUGACACGCAAAACGCGUGCUCCGUUGAAUGGAGUUUAUCAUG [A12U C35G C36G U55G G86U]	≤ -4.2
GGAUCUUCUCGUUCUAAGAAAAAAGACAAAUCUGCCACAAAGCUUGAGAGCAUCUUCGGAUGGAGAGGCGGCAGCCUUCGGUUGCGCGAUAGCGCCAACGUUCUCAACUAGGACACGCAAAACGCGUGCUCCGUUGAAUGGAGUUUAUCAUG [A12U C18G C63G G83U U111G]	≤ -4.2
GGAUCUUCUCGUUCUAACAAAAAAGAGAAAUCUGCUACAAAGCUUGAGAGCAUCUUCGGAUGCAGAGGCGGCAGCCUUCGGUGGCGCGAUAGCGCCAACGUUCUCAACUAUGACACGCAAAACGCGUGCUUCGUUGAAUGGAGUUUAUCAUG [A12U C27G C36U C131U]	≤ -4.2
GGAUCUUCUCGUUCUAACAAAAAAGACAAAUCUGCCACAAAGCUUGAGAGCAUCUUCGGAUGCAGAGGCGGCAGCCUUCGGUGGCGCGAUUGCGCCAACGUUCUCAACUAUGACACGCAGAACGCGUGCUCCGUUGAAUGGAGUUAAUCAUG [A12U A91U A120G U146A]	-4.18
GGAUCUUCUCGUUCUAACAAAAUAGACAAAUCUGCCACAUAGCUUGAGAGCAUCUUCGGAUGCAGAGGCGGCAGCCUUCGGUGGCGACAUAGCGCCAACGUUCUCAACUAUGACACUCAAAACGCGUGCUCCGUUGAAUGGAGUUUAUCAUG [A12U A23U A40U C87A G88C G117U]	≤ -4.2
GGAUCUUCUCGUUAUAACAAAAAAGACAAAUCUGCCACAAAACUUGAGAGCAUCUUCGGAUGCAGAGGCGGCAGCCUUCGGUGGCGCGAUAGCGCGAACGUUCUCAACUAGGACACGCAAAUCGCGUGCUCCGUUGAAUGGAGUUUAUCAUG [A12U C14A G42A C96G U111G A122U]	≤ -4.2
GGAUCUUCUCGUUCUAACAAAAAAGACAAAUCUGCCACAAAGCUUGAGAGCAUCUUCGGAUGCAGAGGCGGCAGCCUUCGGUGGCGCGUUAGCUCCAACGUUCUCAAGUAUGACACGUACACCGCGUGCUCCGUUGCAUGGAGUUUAUCAUG [A12U A89U G94U C108G C118U A120C A122C A137C]	≤ -4.2
GGAUCUUCUCGUUCUAACAAAAACGACAAAUCUGCCACAAAGCUUAAGAGCGUCUUCGGAUGCAGAGGCGGCAGCCUUCGGUGGCGCGAUAGCGCCAACGUUCUCAACUAUGACACGCAAAACGCGUGCUCCGUUGAAUGUAGUUUGUCAUG [A12U A24C G46A A52G G141U A147G]	≤ -4.2
